Source: the Human Domainome abundance scans (Beltran et al. 2025)
± gives the uncertainty stated by the source.

B1: Tumor protein 63, residues 545 to 610; numbered along this chain, Q9H3D4 (parent)
chain: TDCSIVSFLARLGCSSCLDYFTTQGLTTIYQIEHYSMDDLASLKIPEQFRHAIWKGILDHRQLHEF

Variants of: B1
Experiment: abundance fitness (aPCA) (normalised: wild type 0, dead -1); higher = more abundant; growth selection in yeast, the domain comes from the species named
Conditions: Homo sapiens

Point of comparison: E33W, abundance fitness -0.046 ± 0.03. Against it:
- I53Y — lower, -0.821 ± 0.089
- C17I — lower, -0.124 ± 0.032
- C17E — lower, -0.377 ± 0.032
- C17T — within error, -0.087 ± 0.024
- C17H — lower, -0.525 ± 0.049
- D59A — within error, -0.009 ± 0.022
- D59G — within error, -0.02 ± 0.022
- D59V — within error, -0.034 ± 0.022
- D59M — within error, -0.066 ± 0.034
- L26Y — lower, -0.149 ± 0.05
- L26I — within error, -0.014 ± 0.028
- L26F — within error, -0.106 ± 0.055
- L26W — lower, -0.435 ± 0.03
- L26N — lower, -0.414 ± 0.041
- L58E — within error, -0.015 ± 0.03
- L58N — within error, -0.039 ± 0.074
- L58C — within error, 0.01 ± 0.041
- G13T — lower, -0.188 ± 0.073
- I57M — within error, -0.105 ± 0.03
- I57P — lower, -1.04 ± 0.095
- L40Q — lower, -0.909 ± 0.08
- Y30P — within error, 0.007 ± 0.034
- D2W — lower, -0.275 ± 0.039
- D2G — lower, -0.11 ± 0.022
- D2N — within error, -0.053 ± 0.03
- R11Q — within error, -0.08 ± 0.029
- R11Y — lower, -0.221 ± 0.05
- L63G — within error, -0.016 ± 0.018
- L63E — within error, 0.009 ± 0.034
- L63R — within error, -0.045 ± 0.023
- L63W — within error, -0.054 ± 0.032
- L63Y — within error, -0.029 ± 0.033
- Y35H — within error, -0.103 ± 0.034
- Y35N — lower, -0.392 ± 0.032
- Y35S — lower, -0.251 ± 0.023
- Y35Q — lower, -0.394 ± 0.04
- Y20Q — within error, -0.09 ± 0.049
- Y20N — within error, -0.022 ± 0.033
- Y20C — within error, -0.08 ± 0.056
- E33F — within error, -0.06 ± 0.045
- E33A — within error, -0.042 ± 0.029
- E33D — within error, -0.026 ± 0.068
- E33G — within error, -0.074 ± 0.019
- E33N — within error, -0.117 ± 0.041
- L12V — within error, -0.047 ± 0.024
- L12C — within error, -0.087 ± 0.034
- L12S — lower, -0.119 ± 0.028
- H64P — within error, -0.02 ± 0.031
- H51Y — within error, -0.075 ± 0.045
- H51W — within error, -0.058 ± 0.025
- S36H — within error, -0.13 ± 0.092
- S15M — within error, -0.076 ± 0.034
- C14I — within error, -0.068 ± 0.039
- C14P — lower, -0.889 ± 0.098
- E65Y — lower, -0.184 ± 0.079
- E65V — within error, -0.093 ± 0.039
- E65A — within error, 0.002 ± 0.036
- E65M — within error, -0.089 ± 0.076
- E65R — within error, -0.065 ± 0.046
- E65D — within error, 0.081 ± 0.12
- T23Y — within error, -0.096 ± 0.035
- T23P — within error, -0.093 ± 0.032
- S42N — higher, 0.013 ± 0.025
- S42G — higher, 0.051 ± 0.03
- D38F — within error, -0.07 ± 0.15
- D38T — within error, -0.033 ± 0.03
- D38L — within error, -0.039 ± 0.034
- D38G — within error, -0.021 ± 0.034
- D38S — within error, -0.029 ± 0.042
- D38R — within error, -0.03 ± 0.022
- T22W — within error, -0.096 ± 0.027
- T22G — lower, -0.1 ± 0.023
- T22C — lower, -0.166 ± 0.054
- T22V — within error, -0.036 ± 0.023
- T22P — lower, -0.78 ± 0.055
- T22H — within error, -0.04 ± 0.043
- T22D — within error, -0.039 ± 0.037
- T22I — within error, -0.027 ± 0.027
- I45Q — lower, -0.965 ± 0.15
- I45H — lower, -0.925 ± 0.2
- I45G — lower, -0.913 ± 0.065
- L9W — lower, -0.955 ± 0.041
- L9M — lower, -0.272 ± 0.036
- V6N — within error, -0.031 ± 0.028
- V6W — within error, -0.073 ± 0.027
- R50C — within error, -0.052 ± 0.043
- R50L — within error, -0.036 ± 0.022
- H60E — within error, -0.077 ± 0.05
- H60N — within error, -0.015 ± 0.035
- H60P — lower, -0.38 ± 0.042
- H60S — within error, -0.077 ± 0.027
- E47H — within error, -0.067 ± 0.055
- E47Y — within error, -0.002 ± 0.037
- E47Q — within error, -0.004 ± 0.037
- Q31A — lower, -0.108 ± 0.031
- Q31V — lower, -0.841 ± 0.051
- Q31H — within error, -0.047 ± 0.028
- F8Q — lower, -0.835 ± 0.064
- F8A — lower, -0.58 ± 0.034
- F8M — within error, -0.029 ± 0.027
- A10S — lower, -0.104 ± 0.025
- A10G — within error, -0.1 ± 0.035
- G56V — lower, -0.676 ± 0.041
- G56D — lower, -0.446 ± 0.038
- T28C — lower, -0.211 ± 0.028
- T28K — within error, -0.028 ± 0.033
- P46R — lower, -0.66 ± 0.031
- P46K — lower, -0.384 ± 0.052
- P46H — lower, -0.531 ± 0.05
- I29V — within error, -0.019 ± 0.023
- I29P — lower, -0.309 ± 0.04
- A52M — within error, -0.101 ± 0.051
- A52H — within error, -0.068 ± 0.046
- A52L — within error, -0.024 ± 0.023
- F66V — higher, 0.071 ± 0.051
- F66E — lower, -0.678 ± 0.22
- F21I — lower, -0.737 ± 0.095
- F21E — lower, -0.983 ± 0.12
- F21G — lower, -0.986 ± 0.061
- F21Y — lower, -0.85 ± 0.091
- G25Y — lower, -0.349 ± 0.04
- G25A — lower, -0.118 ± 0.032
- G25Q — within error, -0.116 ± 0.049
- G25N — within error, -0.048 ± 0.07
- Q48Y — within error, -0.078 ± 0.043
- Q48D — within error, -0.04 ± 0.038
- C3W — within error, -0.082 ± 0.02
- T1A — within error, -0.064 ± 0.044
- T27E — within error, -0.04 ± 0.029
- T27N — within error, -0.024 ± 0.028
- T27V — within error, -0.044 ± 0.022
- T27K — within error, -0.032 ± 0.038
- T27L — within error, -0.084 ± 0.022
- K55W — lower, -0.192 ± 0.032
- K55H — within error, -0.106 ± 0.082
- K55G — within error, -0.057 ± 0.022
- K55E — within error, -0.018 ± 0.046
- K55P — lower, -0.792 ± 0.088
- K55T — within error, -0.087 ± 0.045
- M37R — within error, -0.037 ± 0.026
- D19F — within error, -0.09 ± 0.031
- I32E — lower, -0.925 ± 0.11
- I5D — lower, -0.997 ± 0.1
- I5L — within error, -0.005 ± 0.022
- S7T — within error, -0.012 ± 0.031
- S7W — lower, -0.132 ± 0.027
- S16H — within error, -0.059 ± 0.036
- S16W — lower, -0.165 ± 0.037
- K44F — within error, -0.081 ± 0.031
- K44I — lower, -0.4 ± 0.045
- D39I — lower, -0.449 ± 0.07
- D39R — lower, -0.171 ± 0.02
- Q62Y — within error, -0.083 ± 0.042
- Q62V — within error, -0.051 ± 0.025
- F49S — within error, -0.026 ± 0.026
- S4Y — lower, -0.164 ± 0.034
- S4V — lower, -0.632 ± 0.027
- S4L — within error, -0.038 ± 0.017
- L43F — lower, -0.245 ± 0.031
- L43S — lower, -0.386 ± 0.028
- R61A — within error, -0.033 ± 0.029
- R61C — within error, -0.073 ± 0.04
- L18F — lower, -0.16 ± 0.031
- Q24P — lower, -0.21 ± 0.033
- Q24L — within error, -0.081 ± 0.021
- Q24S — within error, -0.037 ± 0.024
